Experimental data from the DeepSol protein solubility set.

Experiment: soluble on expression in E. coli; label from the status in PepcDB or PDB records

Row | Sequence | soluble on expression in E. coli
1 | MSPEGAERYDRNCDHQFQKGHVLIEMMGIKKGDFVLDVGCGTGRQALNVAGIIGPAGKLTGIDPSSYRIELARKKFEGDSSGNVRFLVRQAENLQDIPDNSINHAYFCSSFHWVDDKKTALNEIFRVLRPGGKVGMTTLDRNSPNTMKALIDPILAKFGIERRHEWHRGMKKVTAPELHDLLSGAGFTSISIEPRAVPRKYNSPEEFLQHPEEKDSSRGILRDISNETLEKLRQEITEEFRKAQTPEDIGFGNITLFAIATKAQEGLEHHHHHH | not soluble
2 | MKEERRRLLAKVAYLHYVQGKSQTLISKEMNIYRTTVCRMLAKAKEEGIVRIEIADYDADLFALEEYVRQQYGLEKLDLVPNQVEDTPMDTLTNVAKTAAEVFRHVVKDGDKIGLSWGATLSCLMDELNPKAMKDVFIYPLAGGPSHINAKYHVNTLVYRLARIFHGNSAFMNAMVIQEDKHLAKGILQSKYFNDILTSWDQLDLALVGIGGEPNSLEQSQWRDLLTSSDHDQLKYEKAVGEVCCRFFDQAGQPVYTGLQDRTIGISLEQLRRVPKTMAVATGKHKAKAILAALKAGFINYLVTDKETMLAVLALDEDIDLNNVLL | not soluble
3 | AETIVMASTTSTEQSGLFGHLLPAFKKASGIDIKVVAQGTGQALDMARRGDADVLFVHDQVAEEKFVADGYAVKRYPVMYNDFILVGPAKDPAGVKGNDIVAALGKLAKDNADFISRGDKSGTHAAELRFWKQTGSDSKGSGYKECGCGMGPALNMGSSMNAYVLSDRGTWLSFKNPGELKILVEGDKRLFNQYGVMVVNPAKFPHVKAKAAQQFVDWVTSKAGQDAIASYQV | not soluble
4 | MATALNPGRTSAPTPEAAPKLRFDARRYLGTPAVRRIKDEVEIELADRAYLPDLNDLKRDWVASVAAPAFRVLARNRATPPRAFASIGTGSGVDALAAIELLGAEIVGITDLFEEVVATAARNVRGNVRPEAGITLHAGAGDLLIPLAPAGVKFDVIYENLPNLPVDDSRKIEADKTSAAFLAPRSEAIPVFITDWLLTMHYLALVQARDALTPDGVVLSTVGARVPLDVLAQMSRAAGLVPRVLTYGWKVQADADDVISTYANWERQGLGPFRFYAADALEAAFANLDPGEAGANAATIEASLAGEQLGAVAAWEAHRSGLRIGHTYVVLQSGLGLEHHHHHH | soluble
5 | HMFPARWHNYLQCGQVIKDSNLICFKTPLRPELFAYVTSEEDVWTAEQIVKQNPSIGAIIDLTNTSKYYDGVHFLRAGLLYKKIQVPGQTLPPESIVQEFIDTVKEFTEKCPGMLVGVHCTHGINRTGYMVCRYLMHTLGIAPQEAIDRFEKARGHKIERQNYVQDLLI | soluble
6 | GPGSMPRGAIPTGQDWEEQRFNFQQRGSGGSAQPRKVTERDANRAMQSGQNVQVQRKEHQRFNQQTVSAGANAKKLDEDNETLKVKKVDPHLRVRIMKERQALNWSQQDLAQRISERVSVVAEYESGKAVQEERVIVKMEKALGVHLRGAKAGEPMGKTRPAPKAQE | soluble
7 | GIDPFTRDGPLVLIGSGLSSEQQKMLSELAVILKAKKYTEFDSTVTHVVVPGDAVQSTLKCMLGILNGCWILKFEWVKACLRRKVCEQEEKYEIPEGPRRSRLNREQLLPKLFDGCYFYLWGTFKHHPKDNLIKLVTAGGGQILSRKPKPDSDVTQTINTVAYHARPDSDQRFCTQYIIYEDLCNYHPERVRQGKVWKAPSSWFIDCVMSFELLPLDS | soluble
8 | MIIVSRAIVLHNTAYNDSYSIAHLFSRESGRVSYLIPRSSKRGKSGGSLRLLISPLNELEITAEHKQHRDLHFIKEAKLCSLHGRIQSDPVRNSIALFLAEFLYLILRLPEADTNLYDFVAFSIDKLEEMDGPMANFHLAFLFRLLVPLGLIPDLQFGGSVIPRWFDPADGRFVPNAPAHGRGIPPHQSTYLQLFSRITFDNMKAFRLSRAERRQVLDYLVDYYRFHLPPFPLLKTPDILSTLFD | not soluble
9 | AMNAYYIQDRLEAQSWARHYQQLAREEKEAELADDMEKGIPQHLFESLCIDHLQRHGASKKSITRAFDDDVEFQERMAEHIRYMVETIAHHQVDIDSEV | soluble
10 | MGSDKIHHHHHHVQQSQIMEDKIISAVRTFASSINSGGKVVADMSELIEVTSQLPLSSFDYWERFIRSEFSTALRESNSPKWKVWSKPKELVTWLDLISWDGYKREKALRALSGAAPNTFFFSLAVRRLNDWVPQVRKAAREKLPEIAKSTVPECVVDALCVALSNWNSWGRIEDADKEVLLKILCEKEIAKSLRSKLIFSASGPMPSLFSQLGRTPILDGQIEEIAKSAIQPSVRAKAYRSLFEGRVIWIEGRKWVWTDIRYCEGRLKPIVGERKLEIETPLIDLLKRSSEDRSSIVRRVSAEILIRELGNLGVKAKEFAERFALDSSQAVSERGDFALKKLDEAERANAS | not soluble
11 | MSLAAVQVVGSWPSVQPREAPREAIPERGNGFRLLSARLCALRPDDSSSARTEIHLLFDQLISENYSEGSGVAPEDVSALLVQACRLVPLNQNHLVSKVSQLIHHLLNRLQVIVDEQHLDFLLAYTISAIHQCSSWTHREILQALAALVYCNGSKCQKYLPELLGNTGLLMKLSDLAQSDPEVRRAAVHCMANLCLSVPGQPYLEEPYQNVCFQAFLTILQSPKSSDMDDITFCMLLQNALKGIQSLLNGGRMKLTQTDELGALLAVLKKFMFHGLPGLNIEMPTVLYPTPLPQYDGRTPIKEGHHHHHH | not soluble
12 | MGHHHHHHSHMLLTMPGGVAKAGYLHKKGGTQLQLLKWPLRFVIIHKRCVYYFKSSTSASPQGAFSLSGYNRVMRAAEETTSNNVFPFKIIHISKKHRTWFFSASSEEERKSWMALLRREIGHFHEKKDLP | soluble
13 | GMLTGKHVVIIGGDARQLEIIRKLSTFDAKISLVGFDQLDDGFIGVTKMRIDEVDWNTVDAILLPISGTNEAGKVDTIFSNESIVLTEEMIEKTPNHCVVYSGISNTYLNQCMKKTNRTLVKLMERDDIAIYNSIPTAEGTIMMAIQHTDFTIHGANVAVLGLGRVGMSVARKFAALGAKVKVGARESDLLARIAEMGMEPFHISKAAQELRDVDVCINTIPALVVTANVLAEMPSHTFVIDLASKPGGTDFRYAEKRGIKALLVPGLPGIVAPKTAGRILADVLVKLLAEPS | soluble
14 | MVFDPRTLDNPKEISAYRDQRYQGTVRDQETALRTSCTLYVGNLSYYTKEDQVYELFGRAGDVRRVIMGLDRFKKTPCGFCFVEYYTREDAELALQNISNTRMDDRVIRADWDAGFIEGRQYGRGKHGGQVRDEYRKDYDPERGGYNRAIAQKG | not soluble
15 | MSHRPIAIFDFDGTLTRCDSLLPFLRQAQPVILFWLRLPFYLAMWMCYKLRLAPADRTKAAILSTVLKGKREVECRAMGQRFVPAIESILRPEALRCLEWHRSEGHRLVLLTASLLPCVEPWAEKTGFHTVIATLPEIKSGILTGRFEGNNCKGKEKIHRLDRALPHWRDSISYGYGDSPSDRPLLSLCTHSYYRRFPAL | not soluble
16 | MSRLEIYSPEGLRLDGRRWNELRRFESSINTHPHAADGSSYMEQGNNKIITLVKGPKEPRLKSQMDTSKALLNVSVNINKFSKFERSKSSHKNERRVLEIQTSLVRMFEKNVMLNIYPRTVIDIEIHVLEQDGGIMGSLINGITLALIDAGISMFDYISGISVGLYDTTPLLDTNSLEENAMSTVTLGVVGKSEKLSLLLVEDKIPLDRLENVLAIGIAGAHRVRDLMDEELRKHAQKRVSNASAR | soluble
17 | MQNFTLHTPTKVLFGTGQIAQLTQEIPADARILITYGGGSIKQNGVLDQVHQALKGFDFLEFGGIEPNPTYETLMKAVELCRTEGINFLLAVGGGSVLDGTKFIAAAVNYPQDPWHILETTGRDITEALPMGSVLTLPATGSEANNGAVISRRSTGDKQHFFSPHVQPLFAVLDPVVTYTLPPRQVANGVVDAFVHTIEQYLTYPVDAKVQDRFAEGLLLTLIEEGPKALKDPENYNVRANIMWSATMALNGLIGAGVPQDWATHMLGHELTARHGLDHAQTLAVVLPALLVAKKQQKRAKLLQYAERVWGLREGSEDQRIDAAIEATRHFFESLGVATRLSAYKLDGSSIPDLIKKLEEHGMTKLGEHSDITLADSKRIYEAAV | not soluble
18 | MSLKKDTSEQSVEQSEVGLSLEELIRRGARDLIERAIEVEVQQLLAEYENVRMLGGSRAVVRNGYLPAREVLTAVGNVEVRVPKVRDRSGAGVKFNSALVPPYVRRSARVSAALPWLYLKGISTGDMREALTVLLGDEAKGLSPNVVSRLKTEWASDYAGWMKRDLSGSRYVYWWADGVHTSLRGEDDARQCLLVVIGVRLDGTKELVTVGDGHRESKASWLELLRDLKARGLEVGPRLAVGDGALGFWGALDELYPETRRQRCWVHKSANVLNALNALPKSLQAKAKAQLHEIWMAPTRAAAVSAFERFVECYQAKYPKAADKLVRDRDALLAFYDFPAEHWIHLRTTNPIESTFATVRHRTTRTKNCVSRSSFLGLAFKLVQEAEKSWRRIRGVERIAELMGGVVFKDGEPVKDEGHHHHHH | soluble
19 | MMNPLIIKLGGVLLDSEEALERLFSALVNYRESHQRPLVIVHGGGCVVDELMKGLNLPVKKKNGLRVTPADQIDIITGALAGTANKTLLAWAKKHQIAAVGLFLGDGDSVKVTQLDEELGHVGLAQPGSPKLINSLLENGYLPVVSSIGVTDEGQLMNVNADQAATALAATLGADLILLSDVSGILDGKGQRIAEMTAAKAEQLIEQGIITDGMIVKVNAALDAARTLGRPVDIASWRHAEQLPALFNGMPMGTRILA | soluble
20 | MSATNLAVEQLQRVLLPRRGEPADVRSLYLLEAESNKERLEWEDRFSVSVPAGAEVSFQTYFNAFPASYWRRWSQLDSVVLKLKVSGEARVDLYRSKIDGARIGITGSVVKDDFIEFEVSLAPFEDGGWIWFDLTAETDATVEEAGWYAPHAPKAQIMPDGSEVGPFEARATVGIPTFNRPADAVAALEALASDPAVDAVIDTVIMPDQGNKHPADEPGYKAAVEHFGDRFFEFRQGNLGGSGGYSRIMFEALGGVDGKGEAGAAKSPYILYMDDDIAIEPDSVLRALQVARYAKSPILVGGQMLNLQERSHLHTMGEVVGGHDFMWTAAPHVHYDHDFSAHPLHDRGKFDDKPDAPNSRDLHRRIDVDFNGWWMCMIPRVVAEQIGQPLPLFIKWDDAEYGLRARKAGFPTATWPGIAIWHMAWSDKDDAIDWQAYFHLRNRLVVAAMYHQGSVDGIVRSMQKATFKHLLCLEYSTVAIQNEAMKDFLAGPDQLFSILDTSLPRIAAIRKTYPDAVVLPSATELPRATGAPGVPTKDIGGRLAPIKKAMWLAKGLKHSLSKEDASHHEVPQANFAPIEARWFSLSRVDGATVTTADGRGVVYRKRDRDKAKELGKEARALQKQVAERFDELSRAYRNAHPELVSREAWGKVFDEQ | not soluble
21 | MSLREEIKVAVLRMEGTNCEDETVKAFRSLGVEAEAVHIKQFYSDMIRFEEQRSVFDYQCLVFPGGFSAGDYIRAGAIFSARVKSVLRKDIEEFIKMGYPILGICNGFQVLVELGALPGFDEDKPLAEKPEMALAMNDSSRFECRPTLLKKESEKCIFVKNLKKDVVMFPVAHAEGKVVFPSGKEDEYLERLTSNDQIVFRYVDEKGDYAGYPWNPNGSFYNIAGICNATHTVFGLMPHPERAFFGYQVGRREGYGDGYCIFRSVVDYLEEGHHHHHH | not soluble
22 | TTEEKKEEFLATVIDSVGDGVIVIDLDGRIALMNPAAEEISGISRRQAVGHRFALVFHREAVLREMVGKTATSGMTISDHENIVIRKLKQLTPVSATTFPLMLPHGETTGTILVLRD | not soluble
